{
  "source": "patent US20040096898A1",
  "about": "(MCMASTER UNIVERSITY, published 2004)",
  "binders": {"B1": {"name": "phage displaying the 12 amino acid peptide VSNSNWPSFPSS (peptide)", "peptide": "VSNSNWPSFPSS", "modifications": "also: displayed as a fusion on M13KE phage", "notes": "also called phage from 16 and 120 min elutants; consensus clone of the PMCA398 screen; not shown: rest of the M13KE phage display fusion (PhD12 library); not described"}},
  "target": "T1, PMCA398 (WVQKRPWLAESTPIYIQYFVKC) (conjugated through the terminus cysteine to keyhole limpet hemocyanin or ovalbumin)",
  "T1 construct": "Used as the KHLH conjugate (coated), as the free peptide (coated) and as the ovalbumin conjugate (eluting)",
  "T1 peptide": "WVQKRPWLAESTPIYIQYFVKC",
  "test": "phage display panning on coated peptide conjugate",
  "description": "The peptide fragment from the PMCA protein is preferably from an extracellular domain of the PMCA protein. […] The inventors screened an MEK13 random peptide phage display library (New England Biolabs, USA) and identified a phage that bound to the PMCA398-keyhole limpet hemocyanin conjugate and eluted with the PMCA398-ovalbumin. Specific details on the screening assay are provided in Example 1. A peptide containing the 12 amino add recognition sequence and a spacer ([…]-amide, SEQ.ID.NO.1) was synthesized and subsequently termed caloxin 2A1.\n1.4.4. Screening Procedure for PMCA398: The peptide PMCA398 is extremely hydrophobic. Therefore, it was conjugated at a lower (5:1 molar) ratio to KHLH and ovalbumin. The peptide and its conjugates could be used only at low concentrations as very fine suspensions. […] Therefore, a strategy of sequentially increasing selectivity was used. First three rounds of panning were conducted at low stringency. […] The selected phage were pooled. […] After three high stringency washes, a differential time elution was performed—at each time point replacing the elutant with new PBS. The idea was that the most tightly bound phage would elute last. The elution was at room temperature for 1, 2, 4, 8, 16 and then 120 min. The phage from 16 and 120 min elutants gave excellent results in selectivity assays. […]",
  "note": "Ends that are not written are not given here.",
  "data": [
    {"binder": "B1", "values": [
      {"measurement": "binding result", "value": "binds"}
    ]}
  ]
}
